Experimental data published in patent US20220249679A1 (Mitsubishi Tanabe Pharma Corporation, priority 2018, published 2022).

T1: human CD138 (Homo sapiens, UniProt P18827)
T1 sequence (P18827 23-310): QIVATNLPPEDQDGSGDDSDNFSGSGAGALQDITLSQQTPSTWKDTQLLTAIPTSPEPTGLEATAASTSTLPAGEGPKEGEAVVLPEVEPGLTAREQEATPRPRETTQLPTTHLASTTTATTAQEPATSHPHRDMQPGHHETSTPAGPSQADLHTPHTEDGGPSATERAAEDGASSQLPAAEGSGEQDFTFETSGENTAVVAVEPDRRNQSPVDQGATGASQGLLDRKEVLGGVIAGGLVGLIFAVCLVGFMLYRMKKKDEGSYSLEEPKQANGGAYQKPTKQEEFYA

T2: Human CD138 His (Homo sapiens, UniProt P18827)
T2 construct: His
T2 sequence (P18827 23-310): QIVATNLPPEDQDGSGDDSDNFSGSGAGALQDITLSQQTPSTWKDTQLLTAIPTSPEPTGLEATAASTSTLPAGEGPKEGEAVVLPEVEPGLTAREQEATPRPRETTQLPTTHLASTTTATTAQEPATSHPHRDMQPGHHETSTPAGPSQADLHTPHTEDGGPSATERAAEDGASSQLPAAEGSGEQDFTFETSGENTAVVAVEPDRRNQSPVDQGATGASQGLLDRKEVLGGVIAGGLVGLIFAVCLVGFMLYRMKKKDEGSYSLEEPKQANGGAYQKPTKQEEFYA


Tests used:
[1] = tested on: cyno CD138; assay: FACS binding to Expi293 cells transfected with cyno CD138; design: species or system cynomolgus monkey; conditions: 3-fold dilutions from 33.3 μg/mL
Method: (§1) 12P16F6 hIgG1 or 13P30A7 hIgG1 were tested for cross-reactivity to cynomolgus monkey CD138. Antibodies that cross-react with CD138 from cynomolgus monkey (cyno) have an advantage that they can be tested for toxicity in this strain of non-human primate prior to conducting efficacy trials. Briefly, a vector directing the cell-surface expression of human CD138 or cyno CD138 was transfected in Expi293 cells. Binding of 12P16F6 hIgG1 and 13P30A7 hIgG1 to transfected Expi293 cells was tested at 3-fold dilutions starting at 33.3 μg/mL.

[2] = target: T1, human CD138; assay: FACS binding to Expi293 cells transfected with human CD138; conditions: 3-fold dilutions from 33.3 μg/mL
Method: as §1

[3] = target: T2, Human CD138 His; assay: SPR kinetic binding, human CD138; conditions: bivalent analyte fit
Method: Murine IgGs were purified from the hybridoma supernatants and the IgGs were subject to SPR (surface plasmon resonance) for kinetic binding measurements. Human or mouse CD138 His was immobilized on a GLM chip at […] on a BioRad Proteon. […] KDs were measured using bivalent analyte fit.

cyno CD138, sequence (as listed by the source): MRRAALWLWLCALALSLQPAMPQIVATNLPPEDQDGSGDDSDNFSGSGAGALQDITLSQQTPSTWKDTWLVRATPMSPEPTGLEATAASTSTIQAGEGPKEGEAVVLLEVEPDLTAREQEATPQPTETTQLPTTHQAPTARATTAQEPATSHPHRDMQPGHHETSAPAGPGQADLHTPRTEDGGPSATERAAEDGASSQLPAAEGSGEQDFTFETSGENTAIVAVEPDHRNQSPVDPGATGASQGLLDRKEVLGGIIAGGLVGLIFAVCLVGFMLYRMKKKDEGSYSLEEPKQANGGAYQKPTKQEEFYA

Molecule	binding to cynomolgus CD138 expressing cells [1]	binding to human CD138 expressing cells [2]	hCD138 ka [3] [M⁻¹ s⁻¹]	hCD138 kd [3] [s⁻¹]
13P30A7 hIgG1: chimeric antibody: murine variable regions of F13P30A7 (SEQ ID NO:83, 35), constant regions of human IgG1, kappa (antibody, listed as Mus musculus, V domains shown, human IgG1 and kappa constant regions) VH: EVQLVESGGGLVQPKGSLKLSCAASGFTFNTYAMNWVRQAPGKGLEWIARIRSKSNNYATYYADSVKDRFTISRDDSQSLLYLQMNNLKTEDTAIFYCVTDYGYVYFDAWGAGTTVTVSS VL: NIIMTQSPKSMAMSVGERVTLSCKASENVGNYVSWYQQKPEQSPKLLIYGASYRYTGVPDRFTGSGSGTDFTLTISSVQAEDLADYHCGQSSRYPLTFGAGTKLELKR	specific binding	specific binding	–	–
F13P30A7: murine anti-CD138 hybridoma antibody; VH SEQ ID NO:83, VL SEQ ID NO:35 (antibody, listed as Mus musculus, V domains shown) VH: EVQLVESGGGLVQPKGSLKLSCAASGFTFNTYAMNWVRQAPGKGLEWIARIRSKSNNYATYYADSVKDRFTISRDDSQSLLYLQMNNLKTEDTAIFYCVTDYGYVYFDAWGAGTTVTVSS VL: NIIMTQSPKSMAMSVGERVTLSCKASENVGNYVSWYQQKPEQSPKLLIYGASYRYTGVPDRFTGSGSGTDFTLTISSVQAEDLADYHCGQSSRYPLTFGAGTKLELKR	–	–	238000	0.00127
F13P18D8: murine anti-CD138 hybridoma antibody; VH SEQ ID NO:84, VL SEQ ID NO:36 (antibody, listed as Mus musculus, V domains shown) VH: EVQLLESGGGLVQPEGSLKLSCAASGFAFNTYAMNWVRQAPGKGLEWLARIRSKSNNYATYYADSVKDRFTISRDDSQGMLYLQMNNLKTEDTAMYYCVTDYYYVYFDVWGAGTTVTVSS VL: NIVMTQSPKSMSMSVGERVTLSCKASENVGTYVSWYQQKSDQSPKLLIYGASNRYTGVPDRFTGSGSATDFTLTITSVQSEDLADYHCGQSSRYPLTFGAGTKLELKR	–	–	278000	0.000523
F11AP11E5: murine anti-CD138 hybridoma antibody; VH SEQ ID NO:87, VL SEQ ID NO:39 (antibody, listed as Mus musculus, V domains shown) VH: QVQLQQSGAELVKPGASVKLSCKASGYTFTNYYMYWVKQRPGQGLEWIGEINPGNGGTNFNEKFKNKATLTVDKSSSTAYMQLSSLTSEDSAVYYCTTRFAYWGQGTLVIVSA VL: DVVMTQTPLSLSVTIGQPASISCKSGQSLLYSNGKTYLTWLQQRPGQAPKLLMYQVSKLDPGIPDRFSGSGSETDFTLKISRVEAEDLGVYYCLQNTYYPHTFGAGTKLELKR	–	–	128000	0.0117
